Legend:
hdgr2_mouse Hdgfl2 = hdgr2_mouse Hdgfl2 (UniProt Q3UMU9)

Measured: effect of a mutation on the interaction

Hepatoma-derived growth factor (Mus musculus), P51859 S165A, sequence (P51859 whole entry S165A): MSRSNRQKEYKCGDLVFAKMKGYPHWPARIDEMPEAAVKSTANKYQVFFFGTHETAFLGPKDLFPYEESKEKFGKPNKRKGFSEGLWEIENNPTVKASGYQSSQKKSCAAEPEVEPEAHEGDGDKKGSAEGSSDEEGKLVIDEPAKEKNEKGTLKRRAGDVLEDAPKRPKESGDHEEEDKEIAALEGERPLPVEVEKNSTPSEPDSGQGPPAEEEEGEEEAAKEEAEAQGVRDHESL
q3umu9-3, Q3UMU9-3, sequence (Q3UMU9 other isoform, or with tags, fused parts or gaps): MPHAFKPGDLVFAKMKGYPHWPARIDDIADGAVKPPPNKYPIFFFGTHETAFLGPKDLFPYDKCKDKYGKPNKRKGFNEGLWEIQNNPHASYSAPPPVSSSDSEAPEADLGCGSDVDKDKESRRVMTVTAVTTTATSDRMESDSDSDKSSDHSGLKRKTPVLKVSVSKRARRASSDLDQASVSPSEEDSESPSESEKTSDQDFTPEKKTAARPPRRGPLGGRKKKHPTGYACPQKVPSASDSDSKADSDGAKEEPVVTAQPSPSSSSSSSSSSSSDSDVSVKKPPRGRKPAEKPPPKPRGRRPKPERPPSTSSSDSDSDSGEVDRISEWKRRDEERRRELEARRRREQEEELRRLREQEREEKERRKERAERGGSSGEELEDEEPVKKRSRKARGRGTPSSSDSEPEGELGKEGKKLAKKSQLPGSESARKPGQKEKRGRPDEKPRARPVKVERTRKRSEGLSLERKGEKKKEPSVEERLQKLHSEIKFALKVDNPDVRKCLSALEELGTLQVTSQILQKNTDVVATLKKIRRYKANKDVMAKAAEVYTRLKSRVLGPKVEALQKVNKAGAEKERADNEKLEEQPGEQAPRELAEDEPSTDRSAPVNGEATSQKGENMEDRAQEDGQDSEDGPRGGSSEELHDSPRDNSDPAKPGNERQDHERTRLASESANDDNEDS
hdgr2_mouse Hdgfl2, sequence (Q3UMU9 whole entry): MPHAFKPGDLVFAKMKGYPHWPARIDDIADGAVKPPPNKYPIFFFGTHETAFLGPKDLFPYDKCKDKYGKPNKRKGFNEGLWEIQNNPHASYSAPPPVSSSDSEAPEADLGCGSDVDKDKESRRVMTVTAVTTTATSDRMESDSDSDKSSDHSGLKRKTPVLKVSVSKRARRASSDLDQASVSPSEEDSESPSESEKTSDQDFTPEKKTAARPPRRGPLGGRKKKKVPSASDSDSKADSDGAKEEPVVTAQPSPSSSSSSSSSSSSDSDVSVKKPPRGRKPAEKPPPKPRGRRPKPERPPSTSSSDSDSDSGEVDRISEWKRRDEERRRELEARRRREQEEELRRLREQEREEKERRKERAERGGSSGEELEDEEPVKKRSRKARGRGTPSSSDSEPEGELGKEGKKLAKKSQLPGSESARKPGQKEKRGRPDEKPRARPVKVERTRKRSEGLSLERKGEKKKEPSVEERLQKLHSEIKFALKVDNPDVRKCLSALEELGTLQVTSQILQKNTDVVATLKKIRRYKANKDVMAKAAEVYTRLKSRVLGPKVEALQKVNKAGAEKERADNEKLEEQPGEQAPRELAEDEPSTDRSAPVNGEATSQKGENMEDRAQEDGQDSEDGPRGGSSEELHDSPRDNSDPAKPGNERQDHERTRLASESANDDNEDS
q3umu9-1, Q3UMU9-1, sequence (Q3UMU9 whole entry): as above

Hepatoma-derived growth factor (Mus musculus), P51859 S165A
increasing interaction: q3umu9-1, Q3UMU9-1 | q3umu9-3, Q3UMU9-3 | hdgr2_mouse Hdgfl2

From IntAct's records for PubMed 22212508
